Source: the nanobody polyreactivity screen of Harvey et al. (2022)

experiment: yeast display, Sf9 membrane polyspecificity reagent, FACS + sequencing; frameworks hold sequencing errors
In short: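 Galactose-induced (36–48 hours) yeast carrying a synthetic nanobody display library were exposed to 10% biotinylated, detergent-solubilized Sf9 membrane reagent at 4 °C for 1 hour. FACS followed streptavidin microbead enrichment, using low and high (top ~1%) gates for expression (anti-HA) and reagent binding (streptavidin). Colony PCR, MiSeq 2 × 250 sequencing and CDR-length filtering followed. Labels for polyreactivity reflect the gate of origin.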

Sequence | polyreactivity (PSR sort gate)
QVQLVESGAGLGQAGGSLRLSCAASGSNDIYAMGWNRQEPGKEREFVAAISYSSGSTYYADSVKGRFTISRDNAKNTVFLQMNSLIPVDTAVYYCAAVWQAGVYRYYYWGQGTQVTVSS | high polyreactivity
QVQLVESGAGLVHAGGSLRLSCAASGRIFGINAMGWYRQAPGKERELVAAINWSGGSTYYADSVKGRFTISRDNAKNTVYLQMNSVKPEDTAVYYCAAQKYKRVGYWGQGTQVTVSS | high polyreactivity
QVQLVESGAGLVHAGGSLRLSCAASGRTFSSNAMGGYRQAPGKERELVAGITWGGGSTYYADSVKGRFTISRDNAKNTVYLQMYSLKPEDTAVYYCAKSAGKRGYQVDYWVQGTQVTVSS | high polyreactivity
QVQLVESGAGLVKAGGSLRLSCAASGIIFGNYAMGLYRQAPGKEREFVAAISGSGDSTYYADSVKGRFTISRDNAKNTVYLQMNSLKPEVTAVYYCAADWTLVYYHEDYWGQGTQVTVSS | high polyreactivity
QVQLVESGAGLVQAAGSLRLSCAASVSTFYTYAMGRYRQAPGKERELVADIRWRGGSTNYADSVKGRFTISRDNAKNTVYLQMNSLTSEDTAVYYCALRYYYYGASYYYWGHGTQVTVSS | high polyreactivity
QVQLVESGAGLVQAGASLRLSCAASGRIFPWNAMGWSRQEPGKERELVAAISFSAGRTYYADSVKGRFTISRDNAKNTVYLQMNSLKPEDTAVYYCNARIGSRWVWTGIICYEYWGKGTQVTVSS | low polyreactivity
QVQLVESGAGLVQAGGSLLLSCAASAFIFTPYTKGWYRQAPGKETELVAAITDGSSTYYADSVKRRFTISRDNAQNTVYVQMNSLKPEDTAVYYCNADTLTTTRRFNPYDYRGQGTQVTVSS | low polyreactivity
QVQLVESGAGLVQAGGSLRISCAASGIIFTYYPMGWYRQAPGKERELVASISSSGTSTYYADSVKGRFTISRDNAKNTVYLQLNSLKPEDTAVYYCAKSYWGDNSGFPGTPYDYWGQGTQVTVSS | low polyreactivity
QVQLVESGAGLVQAGGSLRISCAASGRIFHYALGWYRQAPGKERELVAGISKRGGSTYYADSVKGRFTISRDNAKNTVYLQMNSLKPEDTAVYYCAAGRAYDGTKHDYWGQGTQVTVSS | high polyreactivity
QVQLVESGAGLVQAGGSLRISCAASGRTFGLNDMAWYRPAPGKERELVAAITWSDDDTYYADSVKGRFTISRDNAKNTVYLQMNSLKPEDTAVYYCAKSRYDYTKTECGYWGQGTEVTVSS | low polyreactivity
QVQLVESGAGLVQAGGSLRLCCAASGFIFRVYAMGLYRQAPGKERELVAAISDSGGSTTYADSVKGRFTISRDNAKNTVYLQMNSLKPEDTAVYYCAAKLPRSRYRGVDYWGQGTQVTVSS | low polyreactivity
QVQLVESGAGLVQAGGSLRLSCAASGFAFYLYAMGWYRQAPGIERELVAAISSRGGNTYYADTVKGRFTISRDYAKNTVYLPMISLKPEDNAVYYCAAEFWNWYGDYDYWGQGTQVTVSS | high polyreactivity
QVQLVESGAGLVQAGGSLRLSCAASGFIFAGNAMGWYIQAPGKERELVAAITRRGGSTHYADSVKGRFTISRDKAKNTVYLQMNSLKPEDTAVYYCNAAVQPPLSDYWGQGTQVTVSS | low polyreactivity
QVQLVESGAGLVQAGGSLRLSCAASGFTFYRYAMGWYRQAPGKEREFLAAITASGGSTNYADSVKGRFTISRDNAKNTVYLQMNSLKPEDTAVYYCAARQSRDFRYRGFYYWGQGTQVTVSS | high polyreactivity
QVQLVESGAGLVQAGGSLRLSCAASGIILRYYALGWYRQAPGKERELVAAISSGGRTYYADSVKGRFTISRDNAKNPVNLLMNSLTPEDTEVYSCAADDTRGREEYDYWGQGTQVTGSS | high polyreactivity
QVQLVESGAGLVQAGGSLRLSCAASGITFGRYTMGWYRQAPGKERELVAAITNGDITYYADSVKGRFTISRDNAKNTVYLQMNSLKPEDTAVYYCAADRSFWYDYWGQGTQVTVSS | high polyreactivity
QVQLVESGAGLVQAGGSLRLSCAASGNIFVEYAKGWYRQAPGKERELVAAITNTGGRTHYADSVKGRFTISRDNAKNTVYFQMNSLKPEDTAVYDCASRRTGYYGTRDYWGQVTQVTVSS | high polyreactivity
QVQLVESGAGLVQAGGSLRLSCAASGRIFAYNAMGWYRQAPGKERELVAGITIRGGRTYYADSVKGRFTISRYNAKNTVYLQMNSLKPEDTAVYYCNARGWYEYGWGQGTQVTVSS | high polyreactivity
QVQLVESGAGLVQAGGSLRLSCAASGRIFPGYVMGWYRQAHGKERELVAAITRGGSTYYADSVKGRFTISRDNAKNTVYLQMNSLKPDDTAVYYCAAKHSHIHYNYWGQGTQVTVSS | low polyreactivity
QVQLVESGAGLVQAGGSLRLSCAASGRILSHYAMGWYRQAPGKERELVATINSGGSTYYADSVKGRFTISRDNAKNTVYLQMNSLKPEDTAVYYCAVDYAVSYAGWVLRYDYWGQATQVTVSS | low polyreactivity
QVQLVESGAGLVQAGGSLRLSCAASGRNFGTYAMGWYTQAPGTERELVAGINGSGGSTYYADSVKGRFTISRDNAKNTVFLQMNSLKPEDTAVYYCAKYNWYRAWRYGYWGQGTQVTVSS | high polyreactivity
QVQLVESGAGLVQAGGSLRLSCAASGRTFHRYAMGWYRQAPGKERELVATINRNGGSTYYADSVKGRFTISRDNAKNTVYLQMNSLKPDDTAVYYCNKRVYTGYKYSESFDRYYYWGQGTQVTVSS | high polyreactivity
QVQLVESGAGLVQAGGSLRLSCAASGRTFKTYAMAWYRQAPGKERELVAAISRDGRTYYADSVKGRFTISRDNAKNTVYLQMNSLKPEDTAVYYCAKDASVWPWWGYRGDYWGQGTQVTVSS | low polyreactivity
QVQLVESGAGLVQAGGSLRLSCAASGSIFGSYAMGRDRQAPGKERELVAGITYRGSSTYYAESVKGRFTISRDNAKNTVYLQMNSLKPEATAVYYCAADPVFDEYDYWGQGTQVTVSS | low polyreactivity
QVQLVESGAGLVQAGGSLRLSCAASGSIFWAYAMGWYRQAPGKERELVAAISRGGTTTYADSVKGRFTISRDNAKYTVYLQMNSLKPEDTAVYYCARQGTIYSYDIVYPRLDYWGQGTQVTVSS | low polyreactivity
QVQLVESGAGLVQAGGSLRLSCAASGSTFDGNVMGWYRQEPGKESELVAAISGGGSTNYADSVKGRFTISRDNAKNTVYLQMNSLKPEDTAVYYCATQYWHFPYWQYKYDYWGQGTQVTVSS | low polyreactivity
QVQLVESGAGLVQAGGSLRLSCAASGSTFGKYAMGWYTQAPGKEMELVARIDSGDGTYYADSVKGRFTISRDNAKNTVYLQMNSLKPEDTAVYYCAARYGARRLTYFWPQYARYDYWGQGTKVTVSS | high polyreactivity
QVQLVESGAGLVQAGGSLRLSCAASGSTFGSYTMGWYRQAPGKERELVAAINWSGGNTYYADSVKGRFTISRDTAKNTVYLQMNSLKPEDTAVYYCAAAFYIYGVEGDYWGQGTQVTVSS | low polyreactivity
QVQLVESGAGLVQAGGSLRLSCAASGSTFKRYAMGWYRQAPGKERELVAAITWRGGSTYYADSVKGRFTISRDNAKNTVYLQMNSLKPEDTAVYYSATDYVYRYDYWGQGTQVTVSS | high polyreactivity
QVQLVESGAGLVQAGGSLRLSCAASGSTFTLNAMGWYRQAPGKERELVADISWSSGRTYYADSVKGRFTISRDNAKNTVDLQMNSLNPEDTAVYYCATDDFWIVKFYAYYPEFDYWGQVTQVTVSS | low polyreactivity
